Data as given in article PMC3048824 (Journal of molecular biology, 2009).
Values joined by “and” are separate entries in the source; they are usually repeats but may differ in a detail not shown here. Identical values can stand only once.

B1: NC1(54) peptide of human collagen XVIII (domain or fragment)
chain: GSSGVRLWATRQAMLGQVHEVPEGWLIFVAEQEELYVRVQNGFRKVQLEARTPLPR
B2: full-length NC1 domain of murine collagen XVIII (domain or fragment)
chain: AGQVRIWATYQTMLDKIREVPEGWLIFVAEREELYVRVRNGFRKVLLEARTALPRGTGNEVAALQPPLVQLHEGSPYTRREYSYSTARPWRADDILANPPRLPDRQPYPGVPHHHSSYVHLPPARPTLSLAHTHQDFQPVLHLVALNTPLSGGMRGIRGADFQCFQQARAVGLSGTFRAFLSSRLQDLYSIVRRADRGSVPIVNLKDEVLSPSWDSLFSGSQGQLQPGARIFSFDGRDVLRHPAWPQKSVWHGSDPSGRRLMESYCETWRTETTGATGQASSLLSGRLLEQKAASCHNSYIVLCIENSFMTSFSK
B3: full-length NC1 domain of murine collagen XV (domain or fragment)
chain: NLVTALSDMGDMLQKAHLVIEGTFIYLRDSGEFFIRVRDGWKKLQLGELIPIPADSPPPPALSSNPYQPQPPLNPILSANYERPVLHLVALNTPVAGDIRADFQCFQQARAAGLLSTFRAFLSSHLQDLSTVVRKAERFGLPIVNLKGQVLFNNWDSIFSGDGGQFNTHIPIYSFDGRDVMTDPSWPQKVVWHGSNPHGVRLVDKYCEAWRTTDMAVTGFASPLSTGKILDQKAYSCANRLIVLCIENSFMTDTRK

How the values were obtained:
[1] = molecular target: the molecule itself; test: GdmCl-induced equilibrium unfolding-refolding monitored by CD
AUC = molecular target: the molecule itself; test: AUC

Protein	Keq ([U]^3/[N], native trimer to unfolded monomers, in water) [1] [mol^2]	stoichiometry N (AUC)
B1	2.4e-21	
B2		2.56
B3		3.11 and 3.6
